Paper PMC8571082 (2021)

B1: Mint3NT, N-terminal fragment (1–214) of Mint3 [human] / factor inhibiting HIF-1 (FIH-1), full-length [human] (parent complex)
chain 1: MDFPTISRSPSGPPAMDLEGPRDILVPSEDLTPDSQWDPMPGGPGSLSRMELDESSLQELVQQFEALPGDLVGPSPGGAPCPLHIATGHGLASQEIADAHGLLSAEAGRDDLLGLLHCEECPPSQTGPEEPLEPAPRLLQPPEDPDEDSDSPEWVEGASAEQEGSRSSSSSPEPWLETVPLVTPEEPPAGAQSPETLASYPAPQEVPGPCDHED
chain 2: MAATAAEAVASGSGEPREEAGALGPAWDESQLRSYSFPTRPIPRLSQSDPRAEELIENEEPVVLTDTNLVYPALKWDLEYLQENIGNGDFSVYSASTHKFLYYDEKKMANFQNFKPRSNREEMKFHEFVEKLQDIQQRGGEERLYLQQTLNDTVGRKIVMDFLGFNWNWINKQQGKRGWGQLTSNLLLIGMEGNVTPAHYDEQQNFFAQIKGYKRCILFPPDQFECLYPYPVHHPCDRQSQVDFDNPDYERFPNFQNVVGYETVVGPGDVLYIPMYWWHHIESLLNGGITITVNFWYKGAPTPKRIEYPLKAHQKVAIMRNIEKMLGEALGNPQEVGPLLNTMIKGRYN

Variants of: B1
Assay: ITC; measured three times for each FIH-1 mutant

Compared with chain 2 E29A, chain 2 E79A is higher in dG: -38.1 kJ/mol for the first, -36.4 kJ/mol for the second.

Going from chain 2 Y71A to chain 2 E250A, the dG falls from -36 kJ/mol to -37.7 kJ/mol.

Compared with chain 2 D248A, chain 2 K75A is higher in dG: -38.9 kJ/mol for the first, -36.8 kJ/mol for the second.

Work on chain 2 N171A yielded a dG of -36.4 kJ/mol.
